# Where two headings read alike, the source gives them in different places. Where a SMILES comes first, the peptide text is derived from it. Bridges are numbered along the chain shown (N, C = ends). Where no end group is shown, it is not given here. The star is where a group is joined. DOTA = O=C(O)CN1CCN(CC(=O)O)CCN(CC(=O)*)CCN(CC(=O)O)CC1
# How the values were obtained:
# [1] = system: integrin receptors expressed on U87MG glioblastoma cells; test: Competition binding with 125I-echistatin to U87MG cells; parameters: species or system human; conditions: competition with 0.06 nM 125I-echistatin, 2×10^5 U87MG cells, IBB, room temperature, 3 h, gamma counting; average ± SD of experiments on three separate days
# Experimental: Competition binding assays were performed as previously described, [60] to measure the relative binding affinities of engineered knottin peptides and echistatin. Briefly, 2×10^5 U87MG or K562 cells were incubated with 0.06 nM ^125I-labeled echistatin and varying concentrations of peptides in IBB at room temperature for 3 h. The cell-bound radioactivity remaining after washing was determined by gamma-counting. Half-maximal inhibitory concentration (IC50) values were determined by non-linear regression analysis using KaleidaGraph software (Synergy Software), and are presented as the average of experiments performed on three separate days.
# [2] = Serum stability in mouse serum (radio-HPLC); type: in vitro ADME; conditions: 50% mouse serum, 37°C, reversed-phase radio-HPLC (Vydac C18), area under the entire peak
# Experimental: (§1) Aliquots containing up to 400 µCi of ^64Cu-DOTA-knottin 3-4A were incubated in 50% mouse serum for up to 24 h. At various time points, samples were mixed with an equal volume of 99.9% water/0.1% TFA, further acidified with ∼1% (v/v) TFA, and centrifuged to remove precipitants. Soluble fractions were filtered with a 0.2 µm microcentrifuge filter (Corning Costar Spin-X filter) and analyzed by reversed-phase radio-HPLC using a Vydac C18 column. For metabolic stability analysis, anesthetized nude mice bearing U87MG tumor xenografts were injected with 200–400 µCi of ^64Cu-DOTA-knottin 3-4A via the tail vein, and were euthanized at 1 h post injection. Tumor, kidney, and liver tissues were homogenized with a mortar/pestle in 1 ml DMF. The lysates were acidified, centrifuged, and filtered using a 0.2 µm Costar Spin-X microcentrifuge filter to isolate soluble metabolites. Filtrates were injected onto a Vydac C18 column and analyzed by reversed-phase HPLC. Fractions were collected every 1 min and analyzed by gamma counting to determine the counts per minute (cpm). Urine samples were collected 1 h post injection and were also analyzed by radio-HPLC. The intact radiotracer elutes at approximately 15 min, and the major hydrophilic metabolites and free copper elute with the column dead volume.
# U87MG tumor xenografts [3] = test: MicroPET imaging in U87MG xenograft mice; type: in vivo, mouse
# Experimental: (§2) Animal procedures were carried out according to a protocol approved by Stanford University Administrative Panels on Laboratory Animal Care (APLAC Protocol 11580). U87MG glioblastoma cells were maintained at 37°C/5% CO2 in Dulbecco's Modified Eagle Medium, 10% heat-inactivated fetal bovine serum, and penicillin-streptomycin (all from Invitrogen). Female athymic nude mice (nu/nu), obtained at 4–6 weeks of age (Charles River Laboratories, Inc., Wilmington, MA), were injected subcutaneously in the right or left shoulder with ∼10^7 U87MG cells suspended in 100 µL of PBS. Mice were used for in vivo imaging studies when their tumors reached approximately 10 millimeters in diameter.
# U87MG tumor-bearing mice (n = 3 or more for each probe) were injected with ∼100 µCi (∼0.5 nmol) of probe via the tail vein and imaged with a microPET R4 rodent model scanner (Siemens Medical, Knoxville, TN) using 5 min static scans. Images were reconstructed by a two-dimensional ordered expectation maximum subset algorithm and calibrated as previously described. ROIs were drawn over the tumor on decay-corrected whole body images using ASIPro VM software (Siemens Medical). ROIs were converted to counts/g/min, and %ID/g values were determined assuming a tissue density of 1 g/mL. No attenuation correction was performed. For the blocking experiments, mice were co-injected with 330 µg (∼0.5 µmol) of unlabeled c(RGDyK), a pentapeptide that binds to αvβ3 and αvβ5 integrins, [62] at a similar receptor binding site as the engineered knottin peptides.
# [4] = Biodistribution in U87MG xenograft mice (gamma counting); type: in vivo, mouse; conditions: female, athymic nude (nu/nu), mouse, iv, total radioactivity; for tissue to tissue ratio at 4 h: U87MG xenograft mice
# Experimental: as §2
# (§3) Anesthetized nude mice bearing U87MG tumor xenografts were injected with ∼50–100 µCi (∼0.25–0.5 nmol) of ^64Cu-DOTA-knottin 3-4A via the tail vein, and were euthanized at 1, 4, and 24 h post injection. Blood, bone, brain, heart, kidney, liver, lung, muscle, pancreas, skin, spleen, and tumor tissue were removed and weighed, and their radioactivity levels (counts per minute) were measured by gamma counting. The radioactivity uptake in the tumor and normal tissue was reported as the percent injected dose per gram (%ID/g) of tissue and represent the mean and standard deviation of experiments performed on three mice. For each mouse, the activity of tissue samples was calibrated against a pre-measured aliquot of the radiotracer and normalized to the whole bodyweight and to the residual radioactivity present in the tail. To test integrin-targeting specificity, U87MG tumor-bearing mice (n = 3) were co-injected with ^64Cu-DOTA-knottin 3-4A and 330 µg (∼0.5 µmol) of unlabeled c(RGDyK), and biodistribution of the radiolabeled peptide was determined 1 h after injection.
# U87MG tumor xenografts [5] = test: as above; type: in vivo, mouse
# Experimental: as §2, §3
# [6] = In vivo metabolic stability in U87MG xenograft mice (radio-HPLC); parameters: species or system mouse
# Experimental: as §1
# [7] = system: MDA-MB-435 melanoma xenograft; test: Tumor uptake in MDA-MB-435 melanoma xenograft model; type: in vivo; conditions: lower αvβ3 integrin levels, data not shown
# [8] = system: integrin receptors expressed on U87MG glioblastoma cells; conditions: read-out: IC50, competition binding of 125I-echistatin to U87MG cells; cited from earlier work
# Experimental: The engineered knottin peptides were tested for their ability to compete with ^125I-echistatin for binding to integrin receptors expressed on U87MG glioblastoma cells, which express ∼10^5 αvβ3 integrin receptors per cell. Echistatin, a polypeptide found in snake venom, binds to multiple integrin receptors with high affinity, [27] and was used as a positive control. […] Both engineered loops were capable of binding to integrins with high affinity, as confirmed by measurements performed with knottins containing scrambled RDG control loops. […] In one example, c(RGDyK) dimers and higher order oligomers have been created by chemical conjugation through addition of a glutamate branching residue.
# [9] = U87MG xenograft mice, summary of imaging and biodistribution
compound,measurement,setting,value
"CSCC[C@@H]1NC(=O)[C@H](CC(=O)O)NC(=O)CNC(=O)[C@H](CCCNC(=N)N)NC(=O)[C@H](C)NC(=O)[C@H](CCC(=O)O)NC(=O)[C@H](CCCNC(=N)N)NC(=O)[C@@H]2CSSC[C@@H]3NC(=O)[C@H](CO)NC(=O)[C@H]([C@@H](C)O)NC(=O)[C@@H]4CCCN4C(=O)[C@H](C)NC(=O)[C@H](Cc4c[nH]c5ccccc45)NC(=O)[C@H](CC(=O)O)NC(=O)CNC(=O)[C@H](CCCNC(=N)N)NC(=O)CNC(=O)[C@H](CCC(N)=O)NC(=O)[C@@H]4CCCN4C(=O)[C@@H](NC(=O)CNC(=O)CN4CCN(CC(=O)O)CCN(CC(=O)O)CCN(CC(=O)O)CC4)CSSC[C@H](NC(=O)CNC(=O)[C@H](C)NC(=O)[C@H](CC(C)C)NC(=O)[C@H](CSSC[C@@H](C(=O)NCC(N)=O)NC(=O)[C@H]([C@@H](C)O)NC(=O)[C@H](CCCNC(=N)N)NC(=O)[C@@H]4CCCN4C1=O)NC(=O)[C@H](CC(=O)O)NC(=O)[C@H](CO)NC(=O)[C@H](CC(=O)O)NC(=O)[C@H](CCC(N)=O)NC(=O)[C@H](CO)NC3=O)C(=O)N[C@@H](C(C)C)C(=O)N2 [DOTA-3-4A] ({DOTA}-GCPQGRGDWAPTSCSQDSDCLAGCVCREARGDMPRTCG-NH2; disulfide 2-24, 14-26, 20-37)",IC50,[1],8 ± 1 nM
"CSCC[C@@H]1NC(=O)[C@H](CC(=O)O)NC(=O)CNC(=O)[C@H](CCCNC(=N)N)NC(=O)[C@H](C)NC(=O)[C@H](CCC(=O)O)NC(=O)[C@H](CCCNC(=N)N)NC(=O)[C@@H]2CSSC[C@@H]3NC(=O)[C@H](CO)NC(=O)[C@H]([C@@H](C)O)NC(=O)[C@@H]4CCCN4C(=O)[C@H](C)NC(=O)[C@H](Cc4c[nH]c5ccccc45)NC(=O)[C@H](CC(=O)O)NC(=O)CNC(=O)[C@H](CCCNC(=N)N)NC(=O)CNC(=O)[C@H](CCC(N)=O)NC(=O)[C@@H]4CCCN4C(=O)[C@@H](NC(=O)CNC(=O)CN4CCN(CC(=O)O)CCN(CC(=O)O)CCN(CC(=O)O)CC4)CSSC[C@H](NC(=O)CNC(=O)[C@H](C)NC(=O)[C@H](CC(C)C)NC(=O)[C@H](CSSC[C@@H](C(=O)NCC(N)=O)NC(=O)[C@H]([C@@H](C)O)NC(=O)[C@H](CCCNC(=N)N)NC(=O)[C@@H]4CCCN4C1=O)NC(=O)[C@H](CC(=O)O)NC(=O)[C@H](CO)NC(=O)[C@H](CC(=O)O)NC(=O)[C@H](CCC(N)=O)NC(=O)[C@H](CO)NC3=O)C(=O)N[C@@H](C(C)C)C(=O)N2 [^64Cu-DOTA-knottin 3-4A, metal not drawn] ({DOTA}-GCPQGRGDWAPTSCSQDSDCLAGCVCREARGDMPRTCG-NH2; disulfide 2-24, 14-26, 20-37)",remaining at 4 h,"[2]; 4 h, read-out: intact probe remaining in serum, 4 h",55%
same,"intact probe remaining in serum, 24 h",[2]; 24 h,~30%
same,remaining at 24 h,"[2]; 24 h, read-out: intact probe remaining in serum, 24 h",30%
same,"kidney uptake, microPET, 1 h post injection",U87MG tumor xenografts [3]; U87MG xenograft mice,10-12 %ID/g
same,"kidney uptake, microPET, 24 h post injection",U87MG tumor xenografts [3]; U87MG xenograft mice,3–4 %ID/g
same,"liver uptake, microPET, throughout the imaging study","U87MG tumor xenografts [3]; U87MG xenograft mice, 1-24 h",~2 %ID/g
same,"kidney uptake, 1−4 h post-injection (summary in discussion)",U87MG tumor xenografts [3]; [9],8–12 %ID/g
same,"kidney uptake, 24 h (summary in discussion)",U87MG tumor xenografts [3]; [9],2–4 %ID/g
same,liver uptake (summary in discussion),U87MG tumor xenografts [3]; [9],1–2 %ID/g
same,"tumor uptake, microPET, 1 h post injection","U87MG tumor xenografts [3]; U87MG xenograft nude mice, tail vein ∼100 µCi, n = 3, mean ± SD",3.51±0.83 %ID/g
same,"tumor uptake, microPET, 24 h post injection","U87MG tumor xenografts [3]; U87MG xenograft nude mice, tail vein, n = 3, mean ± SD",1.97±0.24 %ID/g
same,"tumor uptake, microPET, 1 h post injection, blocked","U87MG tumor xenografts [3]; co-injection of 1000-fold molar excess of unlabeled c(RGDyK) (330 µg), p<0.05",0.53± 0.03 %ID/g
same,tumor washout rate,"[4]; calculated from 1 h and 24 h tumor radioactivity, read-out: radiotracer washout rate from tumor, biodistribution",0.06 %ID/g
same,tissue to tissue ratio at 4 h,"[4]; tumor / muscle, read-out: tumor-to-muscle (T/M) ratio, 4 h post injection",31 ± 7
same,tissue to tissue ratio at 4 h,"[4]; tumor / whole blood, read-out: tumor-to-blood (T/B) ratio, 4 h post injection",27 ± 3
same,"muscle radioactivity, biodistribution",U87MG tumor xenografts [5]; U87MG xenograft mice,< 0.4 %ID/g
same,"heart radioactivity, biodistribution, throughout the study","U87MG tumor xenografts [5]; U87MG xenograft mice, 1-24 h",~0.3 %ID/g
same,"liver radioactivity, biodistribution, 1 h post injection","U87MG tumor xenografts [5]; U87MG xenograft mice, n = 3",~1 %ID/g
same,"liver radioactivity, biodistribution, 24 h post injection","U87MG tumor xenografts [5]; U87MG xenograft mice, n = 3",~2 %ID/g
same,"lung radioactivity, biodistribution, 1 h post injection","U87MG tumor xenografts [5]; U87MG xenograft mice, n = 3",~1 %ID/g
same,"lung radioactivity, biodistribution, 24 h post injection","U87MG tumor xenografts [5]; U87MG xenograft mice, n = 3",~0.6 %ID/g
same,"kidney radioactivity, biodistribution, 24 h post injection","U87MG tumor xenografts [5]; U87MG xenograft mice, n = 3, mean ± SD",2.67±0.22 %ID/g
same,"tumor uptake, biodistribution, 24 h post injection","U87MG tumor xenografts [5]; U87MG xenograft nude mice, gamma counting, n = 3, mean ± SD",2.56±0.40 %ID/g
same,"tumor uptake, biodistribution, 1 h post injection","U87MG tumor xenografts [5]; U87MG xenograft nude mice, tail vein ∼50–100 µCi, gamma counting, n = 3, mean ± SD",3.92±0.70 %ID/g
same,"tumor uptake, biodistribution, 1 h post injection, blocked","U87MG tumor xenografts [5]; co-injection of 1000-fold molar excess of unlabeled c(RGDyK) (330 µg), n = 3, p<0.05",0.66±0.17 %ID/g
same,"intact radiotracer recoverable from liver, 1 h post injection","[6]; U87MG xenograft mice, tail vein 200–400 µCi, liver homogenate in DMF, reversed-phase HPLC and gamma counting",< 40%
same,"intact radiotracer recoverable from tumor, 1 h post injection","[6]; U87MG xenograft mice, tail vein 200–400 µCi, tumor homogenate in DMF, reversed-phase HPLC and gamma counting",< 40%
same,"metabolic stability, kidneys, 1 h post injection","[6]; kidney homogenate, radio-HPLC, result in words",a hydrophilic metabolite (or free copper) is responsible for the majority of the radioactive signal
same,"metabolic stability, urine, 1 h post injection","[6]; urine samples, radio-HPLC, result in words",intact knottin radiotracer is excreted through the bladder
same,"tumor uptake, 1 h post injection",[7],0.82±0.05 %ID/g
"ECESGPCCRNCKFLKEGTICKRARGDDMDDYCNGKTCDCPRNPHKGPAT (disulfide 2-11, 7-32, 8-37, 20-39 (inferred)) [Echistatin, reference compound]",IC50,[1],4.9 ± 0.1 nM
c(RGDyK),IC50,[8],203 ± 32 nM
